US20190203192A1

Molecular target: VEGF (UniProt P15692)
Assay: SPR (BIAcore)
Details: Fab

Chain of VEGF (P15692 other isoform, or with tags, fused parts or gaps): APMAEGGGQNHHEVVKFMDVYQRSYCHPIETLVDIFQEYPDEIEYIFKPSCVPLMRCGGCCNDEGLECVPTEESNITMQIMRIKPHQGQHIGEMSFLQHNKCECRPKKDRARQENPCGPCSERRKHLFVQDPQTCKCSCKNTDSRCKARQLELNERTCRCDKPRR

Kd: 0.103 nM
Substance: anti-VEGF Fab (Lucentics) control
